Measurements from publication PMC6565677, “Kistamicin biosynthesis reveals the biosynthetic requirements for production of highly crosslinked glycopeptide antibiotics” (Nature Communications, 2019).

B1: OxyCkis (KisO), cytochrome P450 Oxy enzyme from kistamicin biosynthesis (enzyme, UniProt A0A1V0AGL8 1-426, looked up)
chain: MTDVTPGFVVDEATQVVTPEPDFIITRKHLEPTDSLRALRKRGALLKINGHALGSLDVDGTAYIWLATGYEVVRRILGDHENFSTRRRLTAGEPIDGTGVTPVKELVGHLMNLDPPEHTRLRRMLTPEFTLRRIRRLEPVISEIIEDHLNLIEDAGPPADLQSMYAEPVGGATLCELIGVPRDDRAEFLRRCGLHLDMSRGSKRRAADSMAFNGYLDHLIGLQRKRPDDGFIGMLVQEHGDDVTDDELRGMITVVLLAGLDNISGMLGLGVLALLEHPEQIPVIFEERAVTDRAVDELTRYLSITFQPTPRMALNDVVVDGQTIKAGEIVVCSLPMANRDEALTPDPDVLDLRRQLAGHVGFGHGVHHCLGSSVSRVVLRLAYQALWRRFPDLRLAVPPEDIVFRKAITHGPKRLPVTWGPSAATR
notes: OxyCkis (KisO), cytochrome P450 from the kistamicin gene cluster of Actinomadura parvosata subsp. kistnae; synthetic codon-optimised gene in pET28a; Heme protein; also called kistamicin OxyC; source: E. coli ArcticExpress, purified (Ni-NTA, anion exchange, size exclusion)
B2: OxyAkis (KisN), cytochrome P450 Oxy enzyme from kistamicin biosynthesis (enzyme)
chain: MVAPEHRVLHLRDRLDLAAELKLLCERGPLVRIPLEDGSAVHWFALGYDVVREVLGSEKFDKRVIGTHFNHQEMALPGNLLQLDPPEHTRLRRMVAPAYSVRRMQALEPRVQAIVDDHLDTMASTGPPVEFLREVAGPMAARVACEFLGIPLDDRGELIRLTAHRGGKRRRVLNGHAYLAYMRELAARLRRDPGDGMLGMVARDHGADISDEELAGLCAVVMNSSVEQTESCLAAGTLLLLEHPEQFALLRERPELGEQAVEEIVRYLSVFEGLDPRTATEDVEIGGQVIKKGEAVFCSLLAANRADPALDGFDITRKESRHVAFGHGIHHCLGAPLARMELRIAFTTLVSRFPSLRTAVPAEEIRFRPPSSNVFTLLELPLTW
notes: OxyAkis (KisN), cytochrome P450 from the kistamicin gene cluster of Actinomadura parvosata subsp. kistnae; synthetic codon-optimised gene in pET28a; Heme protein; also called kistamicin OxyA; source: E. coli ArcticExpress, purified (Ni-NTA, anion exchange, size exclusion)
B3: Xkis-domain, standalone X-domain of the kistamicin NRPS (residues 1024-1493) (domain or fragment, UniProt A0A1V0AGC2 1024-1493, looked up)
chain: RPVLGPGRRADLDPDGPLPVTARQRRMWLLSRIGDEAEGLHVRVALRLRGRLDRDALAGALADVGGRHEILRTRFPGSRRDVRQEILDAETGRPPLEICPATEDELPGLLADRAGRPFDLTGEVPWRAHLFPLTDREQVLLVVAHRIAADEESVDVLVRDLAAAYGARREGRIPERAPLALQFADYALWERELLAGADERDSLIWDQIEFWRDRLAGGDDEHADTSAPPAGRARPVLPSRRAGSVPLRLPADSHARLLEAARSAGGTMFTAVHAALAMLLSRLDGRTSVTIGTRLPRDEEQTGLVPMVGPFSRWLALPVDLSGDPAFTEILGRARDVSEDAHRHQDLPFERLAELVVPVPSITRHPIFQVALQLDEDDVRPEESWALPGLRTSPVPMPEEAMELDLWLKLLDHRTDEGDADGLVGSLVYAEDRFDRAGAEALAQRLVALLEQVGAAPEVRLSQVDVPGSE
notes: X-domain (Oxy-recruiting domain) of the last module of the kistamicin NRPS, residues 1024-1493 of UniProt A0A1V0AGC2; Unlabelled form used for ITC and crystallisation; also called standalone Xkis domain; source: E. coli ArcticExpress, expressed as MBP fusion, purified (Ni-NTA, TEV cleavage, second Ni-NTA); not shown: His6, N-terminal, cleaved; MBP, N-terminal, cleaved

Experiments:
Assay in all cases: ITC; 1.27 mM X-domain injected into 300-400 µM OxyA/OxyC; 25 °C, stirring 300 rpm; 50 mM phosphate pH 7.4, 150 mM NaCl, 5% v/v glycerol; single binding site model; single titration (n = 1)
Conditions in all cases: both partners purified
[1] = target: B3
[2] = target: B2
[3] = target: B1

| Kd [1] [µM] | stoichiometry N [2] | stoichiometry N [3] | Binder |
| --- | --- | --- | --- |
| 6.1 |  |  | B1 |
| 10.4 |  |  | B2 |
|  | 1 | 1 | B3 |
